Measured values as given in patent US5935811.

Target: T1, NRSF/REST (lambda-HZ4 partial) (Homo sapiens) (UniProt Q13127)
T1 sequence: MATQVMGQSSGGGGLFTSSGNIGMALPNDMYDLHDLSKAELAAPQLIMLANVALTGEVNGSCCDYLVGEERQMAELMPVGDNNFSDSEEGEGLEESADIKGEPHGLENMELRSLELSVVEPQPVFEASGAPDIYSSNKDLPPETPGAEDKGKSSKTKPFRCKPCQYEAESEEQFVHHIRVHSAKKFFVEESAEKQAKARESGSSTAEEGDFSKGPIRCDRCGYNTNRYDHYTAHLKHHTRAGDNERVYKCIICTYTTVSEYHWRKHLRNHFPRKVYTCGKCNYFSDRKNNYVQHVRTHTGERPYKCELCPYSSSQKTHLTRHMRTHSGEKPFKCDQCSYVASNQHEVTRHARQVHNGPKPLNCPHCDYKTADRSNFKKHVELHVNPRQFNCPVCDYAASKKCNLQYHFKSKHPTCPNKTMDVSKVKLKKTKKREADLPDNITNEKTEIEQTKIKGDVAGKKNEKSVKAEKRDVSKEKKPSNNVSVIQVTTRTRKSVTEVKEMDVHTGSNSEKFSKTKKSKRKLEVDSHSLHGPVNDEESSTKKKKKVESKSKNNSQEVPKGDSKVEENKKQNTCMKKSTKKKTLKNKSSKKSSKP
Experiment: cell_activity
Conditions: pCAT3 reporter, maximum pCMV-HZ4, PC12 cells

## pCAT3 SCG10 proximal promoter without NRSE
  activity (fold repression): 1.5
